Assay results as given in article PMC4668074, “NDK Interacts with FtsZ and Converts GDP to GTP to Trigger FtsZ Polymerisation - A Novel Role for NDK” (PLoS ONE, 2015).

Columns and labels:
[1] = target: T1, 6xHis-MtFtsZ (Mycobacterium tuberculosis FtsZ) (Mycobacterium tuberculosis, UniProt P9WN95 1-379); assay: pull-down; details: both partners purified
T1 construct: also called MtZ
T1 sequence: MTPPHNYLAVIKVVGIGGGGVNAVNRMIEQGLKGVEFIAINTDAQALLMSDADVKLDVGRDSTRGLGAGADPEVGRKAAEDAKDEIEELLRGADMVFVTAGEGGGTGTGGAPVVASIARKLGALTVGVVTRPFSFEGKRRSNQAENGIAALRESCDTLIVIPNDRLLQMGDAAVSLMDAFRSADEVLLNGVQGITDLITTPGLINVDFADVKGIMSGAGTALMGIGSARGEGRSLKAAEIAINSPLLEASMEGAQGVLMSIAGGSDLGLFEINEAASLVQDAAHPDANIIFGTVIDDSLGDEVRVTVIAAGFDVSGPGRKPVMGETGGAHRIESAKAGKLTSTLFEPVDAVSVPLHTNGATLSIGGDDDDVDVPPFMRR

[2] = target: T2, 6xHis-EcFtsZ (FtsZ of E. coli) (E. coli, UniProt P0A9A6 1-383); assay: pull-down; details: both partners purified
T2 sequence (looked up): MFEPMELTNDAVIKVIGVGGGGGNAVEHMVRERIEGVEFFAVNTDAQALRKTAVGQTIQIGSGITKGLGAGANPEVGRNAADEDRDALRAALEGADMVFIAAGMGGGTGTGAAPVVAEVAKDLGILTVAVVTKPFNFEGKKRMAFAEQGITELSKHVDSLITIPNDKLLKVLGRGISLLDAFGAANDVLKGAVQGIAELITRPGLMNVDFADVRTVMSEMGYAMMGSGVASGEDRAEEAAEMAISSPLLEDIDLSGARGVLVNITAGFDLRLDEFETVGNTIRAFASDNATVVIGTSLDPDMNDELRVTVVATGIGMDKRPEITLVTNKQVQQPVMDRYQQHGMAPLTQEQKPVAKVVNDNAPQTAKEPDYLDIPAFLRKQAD

B1: GST-MtNDK (Mycobacterium tuberculosis nucleoside diphosphate kinase) (enzyme)
chain: MTERTLVLIKPDGIERQLIGEIISRIERKGLTIAALQLRTVSAELASQHYAEHEGKPFFGSLLEFITSGPVVAAIVEGTRAIAAVRQLAGGTDPVQAAAPGTIRGDFALETQFNLVHGSDSAESAQREIALWFPGA
notes: also called GST-NDK; MtNDK-Wt
- binding result [1]: binds
- binding result [2]: binds
